Measurements published in PMC11558679, “Artificial Zymogen Based on Protein–Polymer Hybrids” (Biomacromolecules, 2024).
Values joined by “and” are separate entries in the source; they are usually repeats but may differ in a detail not shown here. Equal entries are not always repeated.

B1: TR-pCBMA hybrid: control without inhibitory domain; poly(CBMA) exclusively grafted from TR (conjugate, UniProt P00760 24-246, looked up)
Serine protease 1: IVGGYTCGANTVPYQVSLNSGYHFCGGSLINSQWVVSAAHCYKSGIQVRLGEDNINVVEGNEQFISASKSIVHPSYNSNTLNNDIMLIKLKSAASLNSRVASISLPTSCASAGTQCLISGWGNTKSSGTSYPDVLKCLKAPILSDSSCKSAYPGQITSNMFCAGYLEGGKDSCQGDSGGPVVCSGKLQGIVSWGSGCAQKNKPGVYTKVCNYVSWIKQTIASN
modifications: poly(CBMA) grafted

Legend:
[1] = Biocatalytic assay (Michaelis–Menten) of CT and CT hybrids with suc-Ala-Ala-Pro-Phe-pNA; format: biochemical, bovine
Procedure: N-Succinyl-L-Ala-L-Ala-L-Pro-L-Phe-p-nitroanilide was used as a substrate for enzyme bioactivity assays. In a cuvette, 0.1 M sodium phosphate buffer (910–990 μL, pH 8.0), substrate (0–80 μL, 6 mg/mL in DMSO), and enzyme (10 μL, 0.1 mg CT/mL in 0.1 M sodium phosphate buffer (pH 8.0), 40 nM as final CT concentration) were mixed. The rate of hydrolysis was determined by recording the increase in absorbance at 412 nm for the first 45 s after mixing. KM and kcat values were calculated using the Enzfitter software when plotting substrate concentration versus initial hydrolysis velocity.

[2] = Biocatalytic assay (Michaelis–Menten) of TR and TR hybrids with Tos-Gly-Pro-Arg-pNA; format: biochemical, bovine; settings: [TR]0 = 8.4 nM, [Tos-GPR-pNA]0 = 0–302 μM, 100 mM Tris–HCl and 20 mM CaCl2 (pH 8.0), 37 °C, absorbance 412 nm, first 45 s, Enzfitter
Procedure: N-Tosyl-L-Gly-L-Pro-L-Arg-p-nitroanilide was used as a substrate for enzyme bioactivity assays. In a cuvette, 0.1 M Tris HCl and 20 mM calcium chloride buffer (890–990 μL, pH 8.0), substrate (0–100 μL, 2 mg/mL in DMSO), and enzyme (10 μL, 0.02 mg TR/mL in 100 mM Tris–HCl and 20 mM calcium chloride (pH 8.0), 8.4 nM as final concentration) were mixed for enzyme bioactivity assays. The rate of hydrolysis was determined by recording the increase in absorbance at 412 nm for the first 45 s after mixing. KM and kcat values were calculated using Enzfitter software when plotting substrate concentration versus initial hydrolysis velocity. […]
Table S5. Char acterization and enzymatic activity of TR-pCBMA and inhibited pro- T R pol ymer h ybr i ds with different linkers between the inhibitory and cleavable peptide moieties.
SEC-M ALLS anal ysi s Michaelis-Menten parameters d
Mnb Mwb Đb DPc KM kcat kcat/KM samples kg mol-1 kg mol-1 (CBM A/inhibitor) (µM) (s-1) (µM-1 s-1) […]
SEC -MALLS and 1H NMR spectra. d conditions: [TR]0 = 8.4 nM, [Tos-GPR-pNA]0 = 0 - 302 µM, buffer 100 mM Tris-HCl and 20 mM CaCl2 (pH 8.0) at 37 °C. […]

[3] = [CT]0 = 40 nM, [suc-AAPFpNA]0 = 0–960 μM, 100 mM sodium phosphate (pH 8.0), 37 °C, absorbance 412 nm, first 45 s, Enzfitter

Molecule	kcat [1, 3]	kcat/KM [1, 3]	Km ([1]; [CT]0 = 40 nM, [suc-AAPFpNA]0 = 0–960 μM, 100 mM sodium phosphate (pH 8.0), 37 °C, absorbance 412 nm, first 45 s, Enzfitter, read-out: KM)	Km ([1]; rounded value in comparison with Ki, read-out: KM of the peptide substrate for native CT)	kcat [2]	kcat/KM [2]	kcat/KM ([2]; listed as TR-pCBMA)	Km ([2]; read-out: KM)
α-Chymotrypsin from bovine pancreas, Type II [native CT]	43.6 s^–1	0.484 μM^–1 s^–1 and 0.484 ± 0.069 μM^–1 s^–1	90.1 ± 12.5 µM	–	–	–	–	–
N-succinyl-L-Ala-L-Ala-L-Pro-L-Phe-p-nitroanilide [suc-Ala-Ala-Pro-Phe-pNA, reference compound]	–	–	–	90 µM	–	–	–	–
B1	–	0.292 μM^–1 s^–1	–	–	45.7 ± 1.1 s^–1	2.43 ± 0.36 μM^–1 s^–1	2.43 ± 0.36 μM^–1 s^–1 and 2.43 μM^–1 s^–1	18.8 ± 2.8 µM
